Source: patent US20210380703A1
Where a chain is given by its changes, count along the chain named.

B1: 367_G04 (antibody, V domains shown)
VH: EVQLLESGGGLVQPGGSLRLSCAASGFTFSSYSMNWVRQAPGKGLEWVAGINYNSGYTSYADSVKGRFTISRDNSKNTLYLQMNSLRAEDTAVYYCARGANWHDTHLDYWGQGTLVTVSS
VL: DIQMTQSPSSLSASVGDRVTITCRASQSILSYLNWYQQKPGKAPKLVIYAATSRASGVPSRFSGSGSGTDFTLTISSLQPEDFATYYCQQSYDSPLTFGGGTKVEIK
B2: 367_D11 (antibody, V domains shown)
VH: B1 VH with S30D, S33G, N35H, A49S, G50N, S55G, T58K, G99A, H106A
VL: B1 VL with L30I, V47L
B3: 369_D03 (antibody, V domains shown)
VH: B1 VH with A49S, S55G
VL: B1 VL with S31T, D93E, S94N
B4: 368_F09 (antibody, V domains shown)
VH: B1 VH with S33G, A49S
VL: B1 VL with S31T, V47L, T52S, R54L, A55Q, D93E, S94T
B5: 368_B09 (antibody, V domains shown)
VH: B1 VH with S30D, S33G, A49S, G50N, S55G, T58K, S59G
VL: B1 VL with V47L, A55H, S94T
B6: 371_B12 (antibody, V domains shown)
VH: B1 VH with S31D, H106A
VL: B1 VL with L30V, S31T, A55H, D93N, S94N
B7: 370_H02 (antibody, V domains shown)
VH: B1 VH with S30D, A49S
VL: B1 VL with S31T, V47L, D93E
B8: 370_B11 (antibody, V domains shown)
VH: B1 VH with S30D, A49S
VL: B1 VL with A55H, S91G, S94L
B9: 367_B09 (antibody, V domains shown)
VH: B1 VH with S30D, S33G, N35H, G50S, S55G, G99A, H106A
VL: B1 VL with L33V, D93E, S94N
B10: 370_B03 (antibody, V domains shown)
VH: B1 VH with G50N, S55G, S59G, H106A
VL: B1 VL with D93N, S94N
B11: 371_A10 (antibody, V domains shown)
VH: B1 VH with S30D, S31D, A49S, S55G, T58K, S59G, H106A
VL: B1 VL with L30V, D93E, S94N
B12: 369_D07 (antibody, V domains shown)
VH: B1 VH with S33G, A49S, S55G, T58K
VL: B1 VL with L30V, S94L
B13: 370_H07 (antibody, V domains shown)
VH: B1 VH with S55G, T58K, H106A
VL: B1 VL with V47L, R54L, Y92D, D93S
B14: 369_B05 (antibody, V domains shown)
VH: B1 VH with S30D, A49S, S55G, T58K
VL: B1 VL with L30I, V47L, R54L, S94T
B15: 366_G06 (antibody, V domains shown)
VH: B1 VH with S33G, N35H, G50S, S55G, S59G, G99A
VL: B1 VL with L30V, L33V, S94N
B16: 371_H05 (antibody, V domains shown)
VH: B1 VH with S33G, A49S, T58K, H106A
VL: B1 VL with L30I, V47L, R54L, D93S, S94L
B17: 371_G04 (antibody, V domains shown)
VH: B1 VH with S30D, A49S, S55G, T58K, H106A
VL: B1 VL with V47L, R54L, A55H, D93E
B18: 371_C12 (antibody, V domains shown)
VH: B1 VH with T58K
VL: B1 VL with L30V, L33V, V47L, S94T
B19: 367_H03 (antibody, V domains shown)
VH: B1 VH with S33G
VL: B1 VL with L30I, S31T, L33V, V47L, R54L, S94L
B20: 371_D02 (antibody, V domains shown)
VH: B1 VH with S30D, S31D, S55G, T58K, H106A
VL: B1 VL with L30V, S31T, V47L
B21: 371_E10 (antibody, V domains shown)
VH: B1 VH with S30D, S55G, H106A
VL: B1 VL with L30S, S31T, V47L, A51V, D93N
B22: 369_C05 (antibody, V domains shown)
VH: B1 VH with S30D, S55G, H106A
VL: B1 VL with L30S, L33V, A51T, A55H, D93N
B23: 368_A03 (antibody, V domains shown)
VH: B1 VH with A49S, S55G, S59G
VL: B1 VL with L30I, V47L, A51V, D93E, S94N
B24: 368_H05 (antibody, V domains shown)
VH: B1 VH with G50N, S55G, T58K
VL: B1 VL with L30V, L33V, A51T, D93E
B25: 371_B09 (antibody, V domains shown)
VH: B1 VH with S59G
VL: B1 VL with L33V, A51T, R54L, S94T
B26: 370_A02 (antibody, V domains shown)
VH: B1 VH with S30D, S33G, S55G, S59G, H106A
VL: B1 VL with L30V, S31T
B27: 371_B03 (antibody, V domains shown)
VH: B1 VH with S33G, N35H, G50S, S55G
VL: B1 VL with L33V, V47L, A51T, S94N
B28: 371_G09 (antibody, V domains shown)
VH: B1 VH with G50N, S55G, S59G, H106A
VL: B1 VL with Y92D, D93S, S94T
B29: 371_F10 (antibody, V domains shown)
VH: B1 VH with S30D, S33G, A49S, H106A
VL: B1 VL with L30S, A51V, D93E
B30: 371_D04 (antibody, V domains shown)
VH: B1 VH with S30D, S31D, S55G, S59G
VL: B1 VL with L30V, L33V, V47L, R54L, D93E, S94N
B31: 371_G11 (antibody, V domains shown)
VH: B1 VH with S33G, A49S, G50N, H106A
VL: B1 VL with L33V, V47L, R54L
B32: 370_D05 (antibody, V domains shown)
VH: B1 VH with S30D, S31D, A49S, G50N, S55G, T58K, S59G, H106A
VL: B1 VL with L30I, S31T, A55H, S94T
B33: 371_G02 (antibody, V domains shown)
VH: B1 VH with S30D, S33G, G50S, S55G
VL: B1 VL with V47L, S94L
B34: 368_A04 (antibody, V domains shown)
VH: B1 VH with S30D, S31D, S55G, T58K
VL: B1 VL with S31T, A51V, D93E, S94L
B35: 371_E06 (antibody, V domains shown)
VH: B1 VH with A49S, S55G, H106A
VL: B1 VL with L30S, S31T, V47L, A51V, R54L, A55H, D93E
B36: 371_C01 (antibody, V domains shown)
VH: B1 VH with S33G, N35H, A49S, G50S, S55G, S59G
VL: B1 VL with L30V, V47L, A55H, S94N
B37: 369_A07 (antibody, V domains shown)
VH: B1 VH with S55G, T58K, S59G, H106A
VL: B1 VL with D93E
B38: 369_E06 (antibody, V domains shown)
VH: B1 VH with S33G, A49S, S55G, H106A
VL: B1 VL with L30I, A55H
B39: 370_F03 (antibody, V domains shown)
VH: B1 VH with S33G, A49S, G50S, T58K, H106A
VL: B1 VL with L33V, V47L, D93E, S94N
B40: 371_E07 (antibody, V domains shown)
VH: B1 VH with S30D, S55G, H106A
VL: B1 VL with L30I, V47L, R54L, D93E
B41: 368_E12 (antibody, V domains shown)
VH: B1 VH with S31D, S33G, S55G
VL: B1 VL with L30V, L33V, A51V
B42: 371_F11 (antibody, V domains shown)
VH: B1 VH with A49S, S55G, H106A
VL: B1 VL with L30I, L33V, V47L, A51V, S94L
B43: 369_D09 (antibody, V domains shown)
VH: B1 VH with S31D, S33G, A49S, G50N, S55G, H106A
VL: B1 VL with S31T, V47L
B44: 368_H02 (antibody, V domains shown)
VH: B1 VH with S33G, H106A
VL: B1 VL with L30V, S31T, D93E
B45: 371_B04 (antibody, V domains shown)
VH: B1 VH with A49S, S55G, T58K, H106A
VL: B1 VL with A51V, A55H
B46: 371_H04 (antibody, V domains shown)
VH: B1 VH with S33G, A49S, G50N, S55G, S59G, H106A
VL: B1 VL with S31T, V47L, D93N
B47: 371_C05 (antibody, V domains shown)
VH: B1 VH with S31D, S33G, N35H, G50N, S55G, S59G, H106A
VL: B1 VL with V47L
B48: 370_B12 (antibody, V domains shown)
VH: B1 VH with S31D, A49S, S55G, T58K, S59G, H106A
VL: B1 VL with L33V, A51T, D93E, S94T

Biological target: human Fc (human)
Assay: ELISA, negative control

Row | optical density | Binder
1 | 0.287 OD | B1
2 | 0.304 OD | B2
3 | 0.391 OD | B3
4 | 0.242 OD | B4
5 | 0.258 OD | B5
6 | 0.378 OD | B6
7 | 0.386 OD | B7
8 | 0.326 OD | B8
9 | 0.476 OD | B9
10 | 0.3 OD | B10
11 | 0.338 OD | B11
12 | 0.363 OD | B12
13 | 0.403 OD | B13
14 | 0.314 OD | B14
15 | 0.341 OD | B15
16 | 0.321 OD | B16
17 | 0.325 OD | B17
18 | 0.544 OD | B18
19 | 0.377 OD | B19
20 | 0.385 OD | B20
21 | 0.341 OD | B21
22 | 0.32 OD | B22
23 | 0.348 OD | B23
24 | 0.277 OD | B24

Row | optical density | Binder
25 | 0.292 OD | B25
26 | 0.425 OD | B26
27 | 0.367 OD | B27
28 | 0.315 OD | B28
29 | 0.299 OD | B29
30 | 0.276 OD | B30
31 | 0.399 OD | B31
32 | 0.333 OD | B32
33 | 0.514 OD | B33
34 | 0.283 OD | B34
35 | 0.33 OD | B35
36 | 0.402 OD | B36
37 | 0.288 OD | B37
38 | 0.306 OD | B38
39 | 0.373 OD | B39
40 | 0.337 OD | B40
41 | 0.347 OD | B41
42 | 0.331 OD | B42
43 | 0.287 OD | B43
44 | 0.348 OD | B44
45 | 0.295 OD | B45
46 | 0.35 OD | B46
47 | 0.269 OD | B47
48 | 0.478 OD | B48
